Laboratory results from paper PMC7961048, “Hierarchized phosphotarget binding by the seven human 14-3-3 isoforms” (Nature Communications, 2021).
No end group written: not given here.

Legend:
Assay in all cases: fluorescence polarisation
Settings in all cases: both partners purified
[1] = biological target: T1, full-length human 14-3-3β fused to the C terminus of MBP (human, UniProt P31946 1-246)
T1 construct: not shown: MBP (crystallisable mutant), N-terminal, kept
T1 sequence (looked up): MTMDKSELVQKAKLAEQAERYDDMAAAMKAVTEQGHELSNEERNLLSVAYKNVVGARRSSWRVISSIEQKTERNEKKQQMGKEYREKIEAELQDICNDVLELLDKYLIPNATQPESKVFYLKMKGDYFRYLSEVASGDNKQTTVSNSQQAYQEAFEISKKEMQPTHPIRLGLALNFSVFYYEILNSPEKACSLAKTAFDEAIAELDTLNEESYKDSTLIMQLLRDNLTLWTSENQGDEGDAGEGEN

[2] = biological target: T2, full-length human 14-3-3γ fused to the C terminus of MBP (human, UniProt P61981 1-247)
T2 construct: not shown: MBP (crystallisable mutant), N-terminal, kept
T2 sequence (looked up): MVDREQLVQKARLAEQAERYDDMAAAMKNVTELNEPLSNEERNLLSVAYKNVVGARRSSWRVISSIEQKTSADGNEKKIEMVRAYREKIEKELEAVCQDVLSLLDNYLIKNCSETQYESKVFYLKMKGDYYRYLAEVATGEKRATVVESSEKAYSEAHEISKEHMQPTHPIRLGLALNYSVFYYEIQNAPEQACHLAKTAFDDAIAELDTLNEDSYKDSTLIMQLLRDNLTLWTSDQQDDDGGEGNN

[3] = biological target: T3, full-length human 14-3-3ε fused to the C terminus of MBP (human, UniProt P62258 1-255)
T3 construct: not shown: MBP (crystallisable mutant), N-terminal, kept
T3 sequence (looked up): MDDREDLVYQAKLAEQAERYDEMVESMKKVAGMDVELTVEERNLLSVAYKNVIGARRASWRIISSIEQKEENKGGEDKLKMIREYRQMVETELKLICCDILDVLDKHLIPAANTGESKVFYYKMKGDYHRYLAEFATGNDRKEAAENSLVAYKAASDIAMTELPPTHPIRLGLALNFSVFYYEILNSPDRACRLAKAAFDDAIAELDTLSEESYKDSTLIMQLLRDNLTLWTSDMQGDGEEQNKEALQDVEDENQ

[4] = biological target: T4, full-length human 14-3-3ζ fused to the C terminus of MBP (human, UniProt P63104 1-245)
T4 construct: not shown: MBP (crystallisable mutant), N-terminal, kept
T4 sequence (looked up): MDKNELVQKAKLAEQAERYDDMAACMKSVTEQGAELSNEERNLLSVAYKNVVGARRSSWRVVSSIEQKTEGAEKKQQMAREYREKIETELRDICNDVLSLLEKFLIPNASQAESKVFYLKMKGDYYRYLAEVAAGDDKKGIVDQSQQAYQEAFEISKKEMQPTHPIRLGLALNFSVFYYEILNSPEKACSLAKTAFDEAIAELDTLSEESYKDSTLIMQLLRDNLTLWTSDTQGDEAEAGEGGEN

[5] = biological target: T5, full-length human 14-3-3η fused to the C terminus of MBP (human, UniProt Q04917 1-246)
T5 construct: not shown: MBP (crystallisable mutant), N-terminal, kept
T5 sequence (looked up): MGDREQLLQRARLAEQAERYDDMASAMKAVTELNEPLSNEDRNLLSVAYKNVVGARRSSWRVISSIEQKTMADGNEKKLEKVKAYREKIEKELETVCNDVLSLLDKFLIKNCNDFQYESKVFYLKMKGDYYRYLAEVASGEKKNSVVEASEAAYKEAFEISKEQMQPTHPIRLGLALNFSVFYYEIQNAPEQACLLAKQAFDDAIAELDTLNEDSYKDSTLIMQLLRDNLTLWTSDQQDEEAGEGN

[6] = biological target: T6, full-length human 14-3-3σ fused to the C terminus of MBP (human, UniProt P31947 1-248)
T6 construct: not shown: MBP (crystallisable mutant), N-terminal, kept
T6 sequence (looked up): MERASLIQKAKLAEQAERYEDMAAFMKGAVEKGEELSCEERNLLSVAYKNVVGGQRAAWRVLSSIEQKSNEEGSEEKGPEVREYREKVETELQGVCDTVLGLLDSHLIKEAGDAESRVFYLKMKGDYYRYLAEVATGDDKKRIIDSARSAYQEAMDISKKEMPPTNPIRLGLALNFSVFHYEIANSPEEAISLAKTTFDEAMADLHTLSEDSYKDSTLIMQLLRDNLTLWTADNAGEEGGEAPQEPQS

[7] = biological target: T7, full-length human 14-3-3τ fused to the C terminus of MBP (human, UniProt P27348 1-245)
T7 construct: not shown: MBP (crystallisable mutant), N-terminal, kept
T7 sequence (looked up): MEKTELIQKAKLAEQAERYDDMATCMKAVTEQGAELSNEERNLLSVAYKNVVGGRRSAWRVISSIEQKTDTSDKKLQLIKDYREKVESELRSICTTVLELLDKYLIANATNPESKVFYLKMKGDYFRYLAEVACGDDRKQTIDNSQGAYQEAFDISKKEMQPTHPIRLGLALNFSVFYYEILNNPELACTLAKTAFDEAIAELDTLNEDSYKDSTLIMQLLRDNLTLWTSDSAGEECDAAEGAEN

Measured: binding result

B1: fluorescently labeled HSPB6 phosphopeptide (fpB6) (peptide)
peptide: WLRRASAPLPGLK
modifications: also: phosphorylation, site not given here, fluorescent label, unspecified
notes: also called FITC-labeled HSPB6 phosphopeptide; tracer; source: synthetic peptide, amino-terminal FITC labeling
binds: all assays above

B2: RSK1 phospho-PBM peptide RSK1_-2P (peptide)
peptide: RRVRKLPSTTL
modifications: not fully specified (residue 9)
notes: source: synthetic peptide (in-house, Fmoc)
binds: all assays above

B3: RSK1 phospho-PBM peptide RSK1_-1P (peptide)
peptide: RRVRKLPSTTL
modifications: not fully specified (residue 10)
notes: as for B2
binds: all assays above
